Source: publication PMC9481175
pKd: −log10 of the molar value.

Target: His-tagged pleckstrin homology (PH) domain of AKT (AKT-PHD) (Marsupenaeus japonicus)
Experiment: ITC; CaM (70 uM) titrated into 10 uM AKT-PHD in the cell; 25°C; 0.1 M Tris-HCl pH 8.0; 19 injections; Auto-iTC200

- pKd: 6.14
- dH: -80.1 kcal/mol
Substance: recombinant GST-tagged calmodulin (CaM) (natural protein)
